Measured values: patent publication US20080112961A1

Columns and labels:
[1] = target: FcγRIIB (form not stated) (UniProt P31994); assay: ELISA
[2] = target: soluble monomeric FcγRIIIA, the extracellular region of FcγRIIIA joined to the linker-AVITAG sequence (UniProt P08637); assay: ELISA
[3] = target: soluble monomeric FcγRIIIA, the extracellular region of FcγRIIIA joined to the linker-AVITAG sequence (UniProt P08637); assay: BIAcore, Ab on BSA-FITC
[4] = target: FcγRIIB-Fc fusion protein, soluble dimer: extracellular domain of FcγRIIB fused to the hinge-CH2-CH3 domain of human IgG2 (human) (UniProt P31994); assay: BIAcore, Ab on BSA-FITC
Chain of FcγRIIB-Fc fusion protein, soluble dimer: extracellular domain of FcγRIIB fused to the hinge-CH2-CH3 domain of human IgG2 (human) (P31994 43-217 limits assumed): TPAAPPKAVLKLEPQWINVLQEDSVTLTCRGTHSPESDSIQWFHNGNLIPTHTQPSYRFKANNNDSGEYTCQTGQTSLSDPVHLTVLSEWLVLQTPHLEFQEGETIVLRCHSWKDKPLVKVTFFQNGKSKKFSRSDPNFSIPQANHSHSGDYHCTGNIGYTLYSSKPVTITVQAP

Chain of FcγRIIB (form not stated) (P31994 43-217 limits assumed): as above

ELISA binding, fold vs Wt [1] | ELISA, OD [2] | Kd [3] | Kd [4] | Substance
9 X | – | – | – | ch4-4-20 MGFc 28 (N315I, A379M, D399E) (antibody)
– | 0.6 OD | 0.264 µM | 0.0665 µM | ch4-4-20 Mut 6 (S219V) (from UniProt P01857 1-330) (antibody)
– | – | 0.128 µM | – | ch4-4-20 Mut 10 (P396L, A330S, K288N) (from UniProt P01857 1-330) (antibody)
– | – | 0.0754 µM | – | ch4-4-20 Mut 14 (K334E, K288N) (from UniProt P01857 1-330) (antibody)
– | 0.5 OD | – | – | ch4-4-20 wild type (from UniProt P01857 1-330) (antibody)
